According to PMC11272584 (Nature Metabolism, 2024):
Where a chain is given by its changes, count along the chain named. Numbers in names are those of the source.

T1: GIPR R300W (Homo sapiens, UniProt P48546, R300W)
T1 construct: host or cells: HEK293
T1 sequence (P48546 22-466 R300W): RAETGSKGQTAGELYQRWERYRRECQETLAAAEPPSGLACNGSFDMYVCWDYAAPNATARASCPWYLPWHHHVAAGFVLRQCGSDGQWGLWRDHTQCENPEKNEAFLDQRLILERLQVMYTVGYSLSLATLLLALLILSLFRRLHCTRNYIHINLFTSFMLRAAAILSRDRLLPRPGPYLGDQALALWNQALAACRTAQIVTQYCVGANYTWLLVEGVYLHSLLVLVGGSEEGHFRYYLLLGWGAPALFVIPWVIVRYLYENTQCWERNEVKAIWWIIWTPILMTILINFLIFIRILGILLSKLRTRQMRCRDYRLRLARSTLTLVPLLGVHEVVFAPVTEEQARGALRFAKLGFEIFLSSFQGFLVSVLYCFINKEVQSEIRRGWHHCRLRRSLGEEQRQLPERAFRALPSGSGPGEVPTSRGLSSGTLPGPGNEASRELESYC

T2: GIPR R336P (Homo sapiens, UniProt P48546, R336P)
T2 construct: host or cells: HEK293
T2 sequence (P48546 22-466 R336P): T1 sequence (P48546 22-466 R300W) with W279R, R315P

T3: GIPR S382T (Homo sapiens, UniProt P48546, S382T)
T3 construct: host or cells: HEK293
T3 sequence (P48546 22-466 S382T): T1 sequence (P48546 22-466 R300W) with W279R, S361T

T4: GIPR L304R (Homo sapiens, UniProt P48546, L304R)
T4 construct: host or cells: HEK293
T4 sequence (P48546 22-466 L304R): T1 sequence (P48546 22-466 R300W) with W279R, L283R

T5: GIPR S382Y (Homo sapiens, UniProt P48546, S382Y)
T5 construct: host or cells: HEK293
T5 sequence (P48546 22-466 S382Y): T1 sequence (P48546 22-466 R300W) with W279R, S361Y

T6: GIPR I378M (Homo sapiens, UniProt P48546, I378M)
T6 construct: host or cells: HEK293
T6 sequence (P48546 22-466 I378M): T1 sequence (P48546 22-466 R300W) with W279R, I357M

T7: GIPR K397N (Homo sapiens, UniProt P48546, K397N)
T7 construct: host or cells: HEK293
T7 sequence (P48546 22-466 K397N): T1 sequence (P48546 22-466 R300W) with W279R, K376N

T8: GIPR E354Q (Homo sapiens, UniProt P48546, E354Q)
T8 construct: host or cells: HEK293
T8 sequence (P48546 22-466 E354Q): T1 sequence (P48546 22-466 R300W) with W279R, E333Q

B1: R300W (protein)
chain: T1 sequence (P48546 22-466 R300W)
B2: R336P (protein)
chain: T1 sequence (P48546 22-466 R300W) with W279R, R315P
B3: I378M (protein)
chain: T1 sequence (P48546 22-466 R300W) with W279R, I357M
B4: S382T (protein)
chain: T1 sequence (P48546 22-466 R300W) with W279R, S361T
B5: S382Y (protein)
chain: T1 sequence (P48546 22-466 R300W) with W279R, S361Y
B6: E354Q (protein)
chain: T1 sequence (P48546 22-466 R300W) with W279R, E333Q
B7: K397N (protein)
chain: T1 sequence (P48546 22-466 R300W) with W279R, K376N
B8: L304R (protein)
chain: T1 sequence (P48546 22-466 R300W) with W279R, L283R

Target: T1, GIPR R300W
Assay: cAMP accumulation
Format: cell-based
Details: not given

Efficacy at 100pmol (cAMP) | Molecule
0.0005276 | B1

Target: T2, GIPR R336P
Assay: cAMP accumulation
Format: cell-based
Details: not given

Efficacy at 100pmol (cAMP) | Molecule
0.3193 | B2

System: GIPR variants (groups)
Assay: β-arrestin 2 recruitment (BRET);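 also: BRET readout of β-arrestin 2 recruitment in transiently transfected HEK293 cells expressing WT GIPR or a GIPR variant plus GPCR kinase 2, Rluc8 donor and citrine acceptor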
Details: arr part of the in vitro group

Molecule | In vitro groups (β-arrestin)
B1 | LoF_arr
B3 | GoF_arr
B2 | LoF_arr
B4 | LoF_arr
B5 | LoF_arr
B6 | WT-like_arr
B7 | LoF_arr
B8 | LoF_arr

Same assay, conditions: in vitro β-arrestin recruitment per GIPR variant

Molecule | Beta, Barr
B1 | 0
B3 | 1.357
B2 | 0.2102
B4 | 0.05782
B5 | 0
B6 | 0.9822
B7 | 0.3822
B8 | 0.1329

Target: T3, GIPR S382T
Assay: cAMP accumulation
Format: cell-based
Details: not given

Efficacy at 100pmol (cAMP) | Molecule
0.1068 | B4

System: GIPR variants (groups)
Assay: cAMP accumulation
Format: cell-based, human
Details: cAMP part of the in vitro group
Protocol: HEK293 (CRL-1573, American Type Culture Collection) and β-arrestin 1/2 knockout cells, generated from HEK293A[48], were used for cAMP measurement, homologues competition binding and β-arrestin 2 recruitment. For the internalization assay, endosomal signalling and basal receptor localization experiments, HEK293A (R70507, Thermo Fisher) cells were used. Both cell lines were cultured at 5% CO2 at 37 °C in Roswell Park Memorial Institute GlutaMAX-I supplemented with 10% fetal bovine serum, 180 units ml^−1 penicillin, and 45 g ml^−1 streptomycin. For the cAMP and binding experiments, cells were transfected with the calcium phosphate precipitation method[49]. The polyethyleneimine (PEI) transfection method was used for the β-arrestin 2 recruitment assays[50], endosomal signalling and basal receptor localization assays, while the lipofectamine transfection method was used for the internalization assay.
cAMP production was measured with the DiscoverX Hithunter cAMP assay according to the manufacturer’s protocol (DiscoverX). […] On the day of the assay, the cells were washed twice with HEPES-buffered saline (HBS) and incubated with HBS and 1 mM 3-isobutyl-1-methylxanthine for 30 min at 37 °C. […] After the incubation, the assay medium was removed from the plate and the cells were washed with 30 µl PBS and treated with 40 µl enzyme donor–lysis buffer–chemiluminescent reagents and 10 µl cAMP antibodies for 60 min before 40 µl enzyme acceptor solution added. After a 3-h incubation on a shaking table in the dark, the cAMP accumulation was measured based on luminescence with a Perkin Elmer EnVision 2104 Multilabel Microplate Reader.
For cAMP accumulation, the data were fitted as a sigmoidal curve with a Hill slope of 1; for homologous competition binding, the data were fitted as a sigmoidal curve with a Hill slope of −1.

Molecule | In vitro groups (cAMP)
B1 | LoF_camp
B3 | WT-like_camp
B2 | LoF_camp
B4 | LoF_camp
B5 | LoF_camp
B6 | WT-like_camp
B7 | WT-like_camp
B8 | LoF_camp

Same assay, conditions: cAMP production compared with WT

Molecule | percentage_camp
B1 | <50% cAMP
B3 | >50% cAMP
B2 | <50% cAMP
B4 | <50% cAMP
B5 | <50% cAMP
B6 | >50% cAMP
B7 | >50% cAMP
B8 | <50% cAMP

Same assay, conditions: in vitro cAMP production per GIPR variant

Molecule | Beta, cAMP
B1 | 0
B3 | 0.8167
B2 | 0.3193
B4 | 0.1068
B5 | 0.008271
B6 | 1.125
B7 | 0.5221
B8 | 0.2373

Target: T4, GIPR L304R
Assay: cAMP accumulation
Format: cell-based
Details: not given

Efficacy at 100pmol (cAMP) | Molecule
0.2373 | B8

Target: T5, GIPR S382Y
Assay: cAMP accumulation
Format: cell-based
Details: not given

Efficacy at 100pmol (cAMP) | Molecule
0.008271 | B5

Target: T6, GIPR I378M
Assay: cAMP accumulation
Format: cell-based
Details: not given

Efficacy at 100pmol (cAMP) | Molecule
0.8167 | B3

Target: T7, GIPR K397N
Assay: cAMP accumulation
Format: cell-based
Details: not given

Efficacy at 100pmol (cAMP) | Molecule
0.5221 | B7

Target: T8, GIPR E354Q
Assay: cAMP accumulation
Format: cell-based
Details: not given

Efficacy at 100pmol (cAMP) | Molecule
1.125 | B6
